T1: A box (human, UniProt P09429 1-85, C23S;C45S;S35C)
T1 sequence: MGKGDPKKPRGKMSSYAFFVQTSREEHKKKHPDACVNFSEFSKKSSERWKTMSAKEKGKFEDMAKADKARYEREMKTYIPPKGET

B1: smFRET DNA (18 bp with 19 nt 3' overhang) (dsDNA)
DNA 1: CAGGCTATAAAAGGGACG
DNA 2: CGTCCCTTTTATAGCCTGATACAAGCAGCAGTCACCA
B2: 18 bp dsDNA (EMSA) (dsDNA)
DNA 1: CAGGCTATAAAAGGGACG
DNA 2: CGTCCCTTTTATAGCCTG

Columns and labels:
A box = molecular target: T1, A box; assay: smFRET
B box = B box (human, UniProt P09429 83-166, C106S;A137C); assay: smFRET
B box, sequence (P09429 83-166 C106S/A137C): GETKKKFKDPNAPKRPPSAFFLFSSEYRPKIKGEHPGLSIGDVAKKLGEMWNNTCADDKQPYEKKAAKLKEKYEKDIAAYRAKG

AB-F38A = AB-F38A (human, UniProt P09429 1-166, C23S;F38A;C45S;C106S;S35C); assay: smFRET
FL HMGB1 [1] = molecular target: T2, FL HMGB1 (human, UniProt P09429 1-215, C23S;C45S;C106S;E204C); assay: smFRET
[2] = molecular target: T3, AB (HMGB1 without C-terminal tail) (human, UniProt P09429 1-166, C23S;C45S;C106S;S35C); assay: smFRET
FL HMGB1 [3] = molecular target: T2, FL HMGB1; assay: EMSA
Target sequence in this assay (P09429 whole entry C23S/C45S/C106S/E204C): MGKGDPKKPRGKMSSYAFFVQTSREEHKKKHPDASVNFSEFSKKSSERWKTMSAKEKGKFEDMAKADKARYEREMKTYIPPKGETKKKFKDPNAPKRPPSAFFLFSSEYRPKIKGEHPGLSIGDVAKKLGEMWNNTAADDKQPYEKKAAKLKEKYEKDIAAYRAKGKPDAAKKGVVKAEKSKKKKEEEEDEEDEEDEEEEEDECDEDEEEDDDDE

[4] = molecular target: T3, AB (HMGB1 without C-terminal tail); assay: EMSA

Row | Binder | binding result (A box) | binding result (B box) | binding result (AB-F38A) | binding result (FL HMGB1 [1]) | binding result [2] | Kd (FL HMGB1 [3]) [nM] | Kd [4] [nM]
1 | B1 | binds | binds | binds | binds | binds | – | –
2 | B2 | – | – | – | – | – | 10 | 5

Source: PMC5642108
